{"source": "patent US20210063414A1", "about": "“METHODS FOR PREVENTING AND/OR TREATING BONE LOSS CONDITIONS BY MODULATING IRISIN” (Dana-Farber Cancer Institute, Inc., priority 2018, published 2021)", "molecules": {"B1": {"name": "irisin: secreted cleaved form of FNDC5; recombinant human/mouse irisin with C-terminal his tag produced in HEK293 cells (protein)", "chain": "DSPSAPVNVTVRHLKANSAVVSWDVLEDEVVIGFAISQQKKDVRMLRFIQEVNTTTRSCALWDLEEDTEYIVHVQAISIQGQSPASEPVLFKTPREAEKMASKNKDEVTMKE", "modifications": "left off: small tags and cut ends", "notes": "secreted cleaved form of FNDC5; recombinant human/mouse irisin with C-terminal his tag produced in HEK293 cells"}}, "assay_in_all_cases": "Crosslinking/co-immunoprecipitation/mass spectrometry (TMT quantitative proteomics) to identify irisin receptors", "assay_type_in_all_cases": "binding", "key": {"[1]": {"biological_target": "T1, MLO-Y4 cell surface proteins (Mus musculus, UniProt Q9DCW4)", "T1 construct": "endogenous in cells; host or cells: MLO-Y4", "T1 sequence (Q9DCW4 1-255)": "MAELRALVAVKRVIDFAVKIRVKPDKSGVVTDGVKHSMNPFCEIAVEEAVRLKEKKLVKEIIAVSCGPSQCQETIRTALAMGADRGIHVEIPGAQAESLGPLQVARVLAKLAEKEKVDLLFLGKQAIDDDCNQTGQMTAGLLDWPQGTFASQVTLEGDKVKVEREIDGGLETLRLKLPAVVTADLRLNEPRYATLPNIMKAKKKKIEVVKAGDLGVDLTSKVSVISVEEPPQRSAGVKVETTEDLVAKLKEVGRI", "conditions": "co-precipitated protein Etfb (ETFB_MOUSE)", "procedure,_shortened": "(§1)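 Mouse MLO-Y4 cells were switched to serum-free FreeStyle medium for 4 h, chilled, then exposed to 10 nM His-tagged irisin (or adipsin as control) for 20 min. Cells were crosslinked with 1.5 mM DTSSP (30 min, ice), and bound proteins were pulled down on Ni-NTA and eluted with 250 mM imidazole. Eluates were separated by SDS-PAGE, trypsin-digested in gel, TMT 6-plex labelled and quantified by MS3-based LC-MS/MS on an Orbitrap Fusion Lumos.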"}, "[2]": {"biological_target": "T2, MLO-Y4 cell surface proteins (Mus musculus, UniProt P97360)", "T2 construct": "endogenous in cells; host or cells: MLO-Y4", "T2 sequence (P97360 1-485)": "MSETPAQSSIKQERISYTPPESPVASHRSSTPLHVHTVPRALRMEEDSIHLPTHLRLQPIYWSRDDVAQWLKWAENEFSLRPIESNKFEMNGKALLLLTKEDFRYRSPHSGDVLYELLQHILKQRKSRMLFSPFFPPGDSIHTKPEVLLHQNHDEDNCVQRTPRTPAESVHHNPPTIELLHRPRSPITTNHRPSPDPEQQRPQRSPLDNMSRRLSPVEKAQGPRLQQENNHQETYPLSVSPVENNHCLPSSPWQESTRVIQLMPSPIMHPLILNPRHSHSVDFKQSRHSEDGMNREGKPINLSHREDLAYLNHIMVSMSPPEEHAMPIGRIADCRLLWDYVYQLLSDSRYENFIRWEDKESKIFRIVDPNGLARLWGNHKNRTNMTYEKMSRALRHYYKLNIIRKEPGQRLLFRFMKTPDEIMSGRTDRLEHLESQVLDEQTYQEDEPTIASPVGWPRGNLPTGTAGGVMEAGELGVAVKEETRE", "conditions": "co-precipitated protein Etv6 (ETV6_MOUSE)", "procedure,_shortened": "as §1"}, "[3]": {"biological_target": "T3, MLO-Y4 cell surface proteins (Mus musculus, UniProt P62960)", "T3 construct": "endogenous in cells; host or cells: MLO-Y4", "T3 sequence (P62960 whole entry)": "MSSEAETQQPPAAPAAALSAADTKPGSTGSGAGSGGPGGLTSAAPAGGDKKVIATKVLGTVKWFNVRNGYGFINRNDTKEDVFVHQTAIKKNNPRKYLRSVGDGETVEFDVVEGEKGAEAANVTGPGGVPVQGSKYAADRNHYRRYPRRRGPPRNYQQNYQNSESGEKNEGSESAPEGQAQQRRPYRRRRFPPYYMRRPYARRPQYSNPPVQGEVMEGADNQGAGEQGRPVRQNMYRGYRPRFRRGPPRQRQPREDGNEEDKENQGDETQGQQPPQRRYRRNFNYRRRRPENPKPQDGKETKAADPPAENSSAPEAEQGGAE", "conditions": "co-precipitated protein Ybx1 (YBOX1_MOUSE)", "procedure,_shortened": "as §1"}, "[4]": {"biological_target": "T4, MLO-Y4 cell surface proteins (Mus musculus, UniProt Q9CY64)", "T4 construct": "endogenous in cells; host or cells: MLO-Y4", "T4 sequence (Q9CY64 3-295)": "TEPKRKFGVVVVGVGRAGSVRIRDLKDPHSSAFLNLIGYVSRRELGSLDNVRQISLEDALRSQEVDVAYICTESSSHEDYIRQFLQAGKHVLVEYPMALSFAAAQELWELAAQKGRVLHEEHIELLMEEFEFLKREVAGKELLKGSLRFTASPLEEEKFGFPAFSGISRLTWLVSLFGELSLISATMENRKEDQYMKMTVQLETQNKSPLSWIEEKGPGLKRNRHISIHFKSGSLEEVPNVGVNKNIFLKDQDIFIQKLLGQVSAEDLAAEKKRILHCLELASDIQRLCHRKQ", "conditions": "co-precipitated protein Blvra (BIEA_MOUSE)", "procedure,_shortened": "as §1"}}}
{"molecule": "B1", "values": [{"measurement": "TMT signal-to-noise ratio", "setting": "[1]", "value": 409.026}, {"measurement": "irisin/adipsin TMT signal-to-noise ratio", "setting": "[1]", "value": 0.560}, {"measurement": "TMT signal-to-noise ratio", "setting": "[2]", "value": 74.6472}, {"measurement": "irisin/adipsin TMT signal-to-noise ratio", "setting": "[2]", "value": 0.544}, {"measurement": "irisin/adipsin TMT signal-to-noise ratio", "setting": "[3]", "value": 0.277}, {"measurement": "TMT signal-to-noise ratio", "setting": "[4]", "value": 86.0306}, {"measurement": "irisin/adipsin TMT signal-to-noise ratio", "setting": "[4]", "value": 0.284}]}
